Experiment [1] has as its target ^17–148Ump1-6His (S. cerevisiae) (UniProt P38293). Put plainly: fluorescence microscopy-based on-bead binding assay; Ump1-6His or ^17–148Ump1-6His from E. coli extracts bound to Ni-NTA beads and washed (20 mM imidazole); extracts with mNeonGreen fusion proteins, adjusted by fluorescence, added 1 h, 4 °C; beads imaged, quantified with Fiji (n = 5), empty vector background subtracted.

For experiment [2], the target named is T1, β7-∆CTE (β7 without C-terminal extension), untagged (S. cerevisiae, UniProt P30657 1-247).
T1 construct: β7/Pre4, S. cerevisiae, C-terminal extension (CTE, the last 19 residues) deleted; propeptide present; source: E. coli, purified
T1 sequence (looked up): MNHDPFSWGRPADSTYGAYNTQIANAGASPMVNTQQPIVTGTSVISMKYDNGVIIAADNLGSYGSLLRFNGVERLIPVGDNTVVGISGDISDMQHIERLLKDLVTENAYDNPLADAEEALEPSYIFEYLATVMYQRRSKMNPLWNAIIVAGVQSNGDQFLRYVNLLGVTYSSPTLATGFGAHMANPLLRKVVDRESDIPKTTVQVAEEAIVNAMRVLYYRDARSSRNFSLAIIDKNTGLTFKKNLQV
Put plainly: pull-down; native extracts of E. coli expressing Ump1-6His incubated with Ni-NTA resin, washed, then incubated with purified untagged β7 versions; elution with imidazole, anti-β7 and anti-Ump1 Western blotting, LI-COR quantification (n = 3). Particulars: both partners purified.

Consider “full-length β7 (^1–266β7) fused to mNeonGreen and 2HA (from UniProt P30657 1-266) (natural protein)”, for which, in experiment [1], the reduction in binding efficiency against full-length Ump1 amounted to 50%.

B1: full-length Ump1-6His (natural protein, S. cerevisiae, UniProt P38293 1-148, looked up)
chain: MNIVPQDTFKSQVSTDQDKSVLSSAVPSLPDTLRQQEGGAVPLSTQLNDRHPLESTLKNWETTQRQRQMEQYRQIFGIAEPMKRTMEMEIVNRTDFNPLSTNGSIHRDILLNKECSIDWEDVYPGTGLQASTMVGDDVHSKIEKQLGI
notes: source: E. coli; not shown: 6His, C-terminal, kept
For B1, the binding result in experiment [2] was “binds”.

These data come from publication PMC8961534, “Interaction with the Assembly Chaperone Ump1 Promotes Incorporation of the β7 Subunit into Half-Proteasome Precursor Complexes Driving Their Dimerization” (Biomolecules, 2022).
